Results: US20050221292A1
Substitutions are numbered along the chain they refer to.

Key:
[1] = biological target: T1, F(MMP#2): Sendai virus F protein with the activation site modified to PLG↓MTS (UniProt P04855)
T1 sequence: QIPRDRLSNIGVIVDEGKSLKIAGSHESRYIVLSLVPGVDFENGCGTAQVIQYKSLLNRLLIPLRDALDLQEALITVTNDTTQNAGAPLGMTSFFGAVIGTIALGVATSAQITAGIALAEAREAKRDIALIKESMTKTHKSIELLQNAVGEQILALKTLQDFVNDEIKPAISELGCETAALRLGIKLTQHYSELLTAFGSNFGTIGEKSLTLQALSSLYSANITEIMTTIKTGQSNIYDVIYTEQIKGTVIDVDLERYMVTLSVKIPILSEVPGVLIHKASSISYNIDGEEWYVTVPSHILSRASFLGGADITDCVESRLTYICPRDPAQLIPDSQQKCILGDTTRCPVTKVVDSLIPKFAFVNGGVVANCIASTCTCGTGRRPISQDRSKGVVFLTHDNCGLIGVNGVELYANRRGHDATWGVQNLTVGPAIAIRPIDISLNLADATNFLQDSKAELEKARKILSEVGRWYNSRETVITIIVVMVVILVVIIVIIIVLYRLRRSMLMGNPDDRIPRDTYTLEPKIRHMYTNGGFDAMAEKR

[2] = biological target: T2, F(uPA): Sendai virus F protein with the activation site modified to VGR (UniProt P04855)
T2 sequence: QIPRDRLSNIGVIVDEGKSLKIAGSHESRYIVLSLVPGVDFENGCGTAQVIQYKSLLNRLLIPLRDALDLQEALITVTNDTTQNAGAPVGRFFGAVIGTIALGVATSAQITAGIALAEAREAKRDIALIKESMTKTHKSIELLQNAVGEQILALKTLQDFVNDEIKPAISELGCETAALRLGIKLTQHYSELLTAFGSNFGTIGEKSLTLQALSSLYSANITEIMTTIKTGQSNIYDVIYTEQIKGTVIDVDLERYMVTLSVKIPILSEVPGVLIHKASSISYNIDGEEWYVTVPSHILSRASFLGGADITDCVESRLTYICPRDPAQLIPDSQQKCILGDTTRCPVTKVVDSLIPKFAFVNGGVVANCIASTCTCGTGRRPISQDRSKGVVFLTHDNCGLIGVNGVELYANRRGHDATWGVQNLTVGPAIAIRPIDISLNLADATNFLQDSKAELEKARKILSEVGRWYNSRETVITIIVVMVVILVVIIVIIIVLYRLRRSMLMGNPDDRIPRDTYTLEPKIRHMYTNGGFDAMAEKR

[3] = biological target: T3, Sendai virus (SeV) F protein, wild type (unmodified F) (UniProt P04855)
T3 sequence: T2 sequence with V89Q, G90S

[4] = biological target: T4, Fct14(MMP#6)/Linker/HN chimeric protein (UniProt P04855)
T4 sequence: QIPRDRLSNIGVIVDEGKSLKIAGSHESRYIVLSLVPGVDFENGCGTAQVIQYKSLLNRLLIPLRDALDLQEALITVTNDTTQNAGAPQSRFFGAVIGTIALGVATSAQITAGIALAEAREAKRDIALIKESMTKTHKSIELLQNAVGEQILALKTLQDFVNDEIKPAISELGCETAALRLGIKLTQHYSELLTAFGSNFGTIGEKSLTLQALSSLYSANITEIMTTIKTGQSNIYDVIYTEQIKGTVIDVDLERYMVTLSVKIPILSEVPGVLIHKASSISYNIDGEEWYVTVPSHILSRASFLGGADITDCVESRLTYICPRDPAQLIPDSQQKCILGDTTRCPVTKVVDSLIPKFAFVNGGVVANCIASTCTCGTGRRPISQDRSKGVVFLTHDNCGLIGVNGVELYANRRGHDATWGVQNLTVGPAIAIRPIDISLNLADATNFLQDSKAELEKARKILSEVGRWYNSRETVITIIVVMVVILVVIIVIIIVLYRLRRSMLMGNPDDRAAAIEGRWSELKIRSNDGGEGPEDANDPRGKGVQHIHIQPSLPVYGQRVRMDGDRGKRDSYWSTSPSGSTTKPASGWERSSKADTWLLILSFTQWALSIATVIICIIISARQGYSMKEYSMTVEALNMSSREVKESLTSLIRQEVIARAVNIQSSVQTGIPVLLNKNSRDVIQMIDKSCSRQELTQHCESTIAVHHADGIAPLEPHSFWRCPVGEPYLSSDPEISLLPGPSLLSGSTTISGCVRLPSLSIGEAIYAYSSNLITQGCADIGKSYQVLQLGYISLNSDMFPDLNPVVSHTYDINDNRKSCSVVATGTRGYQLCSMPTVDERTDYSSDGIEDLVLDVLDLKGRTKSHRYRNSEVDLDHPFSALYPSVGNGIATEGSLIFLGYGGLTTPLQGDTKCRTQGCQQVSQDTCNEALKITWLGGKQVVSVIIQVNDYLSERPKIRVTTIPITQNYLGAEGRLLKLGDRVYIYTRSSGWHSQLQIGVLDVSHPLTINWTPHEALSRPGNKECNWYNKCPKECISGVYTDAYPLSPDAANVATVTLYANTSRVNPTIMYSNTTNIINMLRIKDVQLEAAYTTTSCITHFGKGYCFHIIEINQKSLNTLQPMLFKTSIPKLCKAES

## active MMP-9 (COSMO BIO)
[1]
  cleavage of F0 to F1 (Western blotting of protease-treated viral particles): MMP-9 cleaved that of the M-deficient SeV vector having the MMP#2 sequence inserted into the F protein

## trypsin (Gibco-BRL)
[2]
  cleavage of F0 to F1 (Western blotting; data not shown): for the M-deficient SeV vector into which uPA sequence is inserted, cleavage of F1 was observed in the presence of trypsin when the degradation time was prolonged to four hours
[3]
  cleavage of F0 to F1 (Western blotting of protease-treated viral particles): trypsin cleaved the F protein of the F-unmodified M-deficient SeV vector

## type IV collagenase (Clostridium histolyticum) (ICN)
[4]
  fusogenicity (syncytium formation) relative to the MMP#2 chimera, against concentration of added collagenase: MMP#6 was found to have two to three times higher fusogenicity compared to MMP#2

## uPA (urokinase-type plasminogen activator)
[2]
  cleavage of F0 to F1 (Western blotting of protease-treated viral particles): uPA cleaved that of the M-deficient SeV vector having the uPA sequence inserted into the F protein
  syncytia formation in LLC-MK2 (exogenous protease): upon further modification of the F protein, showed the formation of syncytia, multinuclear cells, in the presence of uPA
